Test results as given in paper doi:10.1101/2021.03.09.434543.

T1: OsFD7 (OsbZIP62)-GST (Oryza sativa (rice), UniProt B7F384 1-274)
T1 sequence: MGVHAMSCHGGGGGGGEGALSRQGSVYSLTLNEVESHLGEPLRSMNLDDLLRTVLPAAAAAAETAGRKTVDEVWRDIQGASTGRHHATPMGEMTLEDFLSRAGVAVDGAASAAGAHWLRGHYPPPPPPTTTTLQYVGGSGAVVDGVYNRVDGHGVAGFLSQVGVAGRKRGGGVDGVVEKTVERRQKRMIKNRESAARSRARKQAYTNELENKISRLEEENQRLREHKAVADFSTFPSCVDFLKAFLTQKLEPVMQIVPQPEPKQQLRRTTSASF

B1: GB oligo (dsDNA)
DNA 1: GTCACATACACGTGTCAGCTCAG
DNA 2: CTGAGCTGACACGTGTATGTGAC

Columns and labels:
[1] = target: OsFD7, FLIM-FRET fusion (rice (Oryza sativa)); assay: FRET or BRET
OsFTL1-GST = OsFTL1-GST (Oryza sativa (rice), UniProt B7ELI3 1-276); assay: EMSA
OsFD7 (OsbZIP62)-GST = target: T1, OsFD7 (OsbZIP62)-GST; assay: EMSA
OsGF14b-GST = OsGF14b-GST (Oryza sativa (rice), UniProt Q7XTE8 1-262); assay: EMSA
Chain of OsGF14b-GST (Q7XTE8 whole entry): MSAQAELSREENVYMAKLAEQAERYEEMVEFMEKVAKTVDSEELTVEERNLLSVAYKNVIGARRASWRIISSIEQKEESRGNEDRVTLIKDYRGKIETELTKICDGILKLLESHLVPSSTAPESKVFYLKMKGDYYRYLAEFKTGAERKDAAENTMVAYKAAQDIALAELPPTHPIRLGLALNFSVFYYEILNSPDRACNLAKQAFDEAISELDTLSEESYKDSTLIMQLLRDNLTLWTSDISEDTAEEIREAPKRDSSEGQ

[2] = target: OsFD7 (OsbZIP62)-GST;OsFTL1-GST (Oryza sativa (rice);Oryza sativa (rice), UniProt B7F384;B7ELI3 1-274;1-276, |); assay: EMSA
[3] = target: OsFD7 (OsbZIP62)-GST;OsFTL1-GST;OsGF14b-GST (Oryza sativa (rice);Oryza sativa …, UniProt B7F384;B7ELI3;Q7XTE8 1-274;1-276;1-262, ||); assay: EMSA

| Molecule | FRET efficiency [1] [%] | binding result (OsFTL1-GST) | binding result (OsFD7 (OsbZIP62)-GST) | binding result (OsGF14b-GST) | binding result [2] | binding result [3] |
| --- | --- | --- | --- | --- | --- | --- |
| Hd3a, FLIM-FRET fusion (from UniProt Q93WI9 1-179) (natural protein) | 15.1 | – | – | – | – | – |
| OsFTL1, FLIM-FRET fusion (natural protein) | 23.3 | – | – | – | – | – |
| B1 | – | no binding | binds | no binding | binds | binds |
